According to patent US20210269771A1 (RAMOT AT TEL AVIV UNIVERSITY, published 2021):

B1: 3BNC117 expressed as a membranal B cell receptor (BCR) on engineered B cells (antibody, V domains shown)
VH: QVQLLQSGAAVTKPGASVRVSCEASGYNIRDYFIHWWRQAPGQGLQWVGWINPKTGQPNNPRQFQGRVSLTRHASWDFDTFSFYMDLKALRSDDTAVYFCARQRSDYWDFDVWGSGTQVTVSS
VL: DIQMTQSPSSLSASVGDTVTITCQANGYLNWYQQRRGKAPKLLIYDGSKLERGVPSRFSGRRWGQEYNLTINNLQPEDIATYFCQVYEFVVPGTRLDLK
notes: also called 3BNC117 BCR; ADN171
B2: 3BNC117 antibody, recombinant, expressed in Expi293F cells and purified (antibody, V domains shown)
VH: B1 VH
VL: B1 VL
notes: also called pADN210 (light chain) / pADN211 (heavy chain)

Tests used:
[1] = target: T1, gp120 antigen of the YU2.DG HIV strain, His-tagged (HIV-1 strain YU2.DG, UniProt P35961 32-498); assay: flow cytometry on engineered primary human and murine B cells
T1 construct: domain: gp120; also called gp120-YU2.DG; gp120-YU2

[2] = target: T1, gp120 antigen of the YU2.DG HIV strain, …; assay: ELISA (FIG. 15A)
Procedure: Enzyme Linked Immunosorbent assay. […] Plates were washed with PBST and blocked for two hours with 5% BSA in PBST, washed again and detection antibodies, anti-mouse IgA(abcam) or anti-mouse IgG or anti-mouse IgG1 or anti-mouse IgM (Jackson ImmunoResearch) were provided for an additional incubation of two hours at 2 μg/ml in PBST. Before detection with QuantaBlu (ThermoFisher) according to manufacturer protocols, plates were washed for an additional round. Detection was done in a Synergy M1 Plate reader (Biotek). The concentration of antigen specific antibodies was determined by reference to the dilution factor of the standard curve.

Binder	binding result [1]	binding result [2]
B1	binds	
B2		binds
